The target in data set [1] is BCL6 (B-Cell Lymphoma 6) S-Peptide micro-tag construct.
For data set [2], the target named is MTH1-10aa-S-tag fusion protein.
Data set [3] addresses MTH1-3aa-S-tag fusion protein.
The target of data set [4] is MTH1-S-tag fusion protein (no linker between MTH1 and the S-tag peptide).

Here are results for one protein from patent US20220155286.

B1: His tagged RNase donor protein (S protein) (protein)
chain: MSSSNYCNQMMKSRNLTKDRCKPVNTFVHESLADVQAVCSQKNVACKNGQTNCYQSYSTMSITDCRETGSSKYPNCAYKTTQANKHIIVACEGNPYVPVHFDASVHHHHHH
As for B1, the “fluorescence signal (RLU/min) after heat challenge” value in data set [1] is “the micro-tag construct was denatured in the heat challenge and there was less micro-tag available for enzyme complementation resulting in lower fluorescence signal”. In data set [2], the “S protein concentration at which the fluorescent signal starts to saturate” value (“S protein concentration” below) is reported as “S protein concentration started to saturate signal at about 1-2 ng/ul S protein” and the “fluorescent signal (cleavage of the FRET substrate by complemented RNase S), 50 ug lysate, thermal gradient” value (“fluorescent signal … thermal gradient” for short) is on record as “there was no significant effect of spacer length on fluorescent signal”. Moreover, in data set [3], the “S protein concentration” value is on record as “S protein concentration started to saturate signal at about 1-2 ng/ul S protein”; the “fluorescence increase (RLU change per minute)” value is given as “detected fluorescence increase that was directly proportional to the amount of micro-tagged protein in the reaction”; the “fluorescent signal … thermal gradient” value was “there was no significant effect of spacer length on fluorescent signal”; the “kinetic trace of the S-tag (Micro-tag) fluorescence signal over 20 minutes” value is reported as “A kinetic trace of the development of the S-tag (Micro-tag) fluorescence signal over the course of 20 minutes”. Moreover, in data set [4], the “S protein concentration” value is “S protein concentration started to saturate signal at about 1-2 ng/ul S protein” and the “fluorescent signal … thermal gradient” value is listed as “there was no significant effect of spacer length on fluorescent signal”.
